The numbers were not newly measured in article PMC5800599, which cites them from elsewhere.

The data set has as its target FcγRIIIa/CD16A (Homo sapiens) (UniProt P08637).

Sequence of FcγRIIIa/CD16A (Homo sapiens) (P08637 17-254): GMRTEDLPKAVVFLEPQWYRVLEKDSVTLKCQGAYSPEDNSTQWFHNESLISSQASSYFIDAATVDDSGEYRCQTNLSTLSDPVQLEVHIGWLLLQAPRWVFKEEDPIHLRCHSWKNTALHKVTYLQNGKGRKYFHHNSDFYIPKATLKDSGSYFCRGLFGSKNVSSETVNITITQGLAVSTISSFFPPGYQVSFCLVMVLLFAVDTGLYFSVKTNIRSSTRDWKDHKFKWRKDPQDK

One may read the Kd as the concentration at which binding is half-saturated. hIgG1 Fc Fc (from UniProt P01857): the Kd was 550 nM.
